Data set [1] concerns the target T1, Aβ1-42 (Homo sapiens, UniProt P05067). As to the kind of experiment: ELISA binding of Aβ1-42 to plate-coated neutrophil proteins and derived peptides. The following applies: for binding of Aβ1-42: 150 nM Aβ1-42, plate coated with protein/peptide at 5 μg/ml, no protease inhibitor; for binding of Aβ1-42 on addition of antiproteases: 1 mM PMSF (CAP37, NE) or 125 μM chymostatin (CG). How it is done:
CAP37, NE, and CG were purified from human neutrophils and purchased from Athens Research and Technology. BSA was from Sigma Aldrich. CAP37-derived peptides were synthesized by CS Bio Co with a purity >95%. Maxisorp plates from Nunc were coated with 100 μl neutrophil protein, peptide, or BSA diluted at 5 μg/ml in PBS with or without 1 mM PMSF purchased from Sigma Aldrich (for experiments with CAP37, NE, and BSA) or ±125 μM chymostatin purchased from Santa Cruz (for experiments with CG and BSA). Plate coating was done at room temperature for 2 hours with shaking and then at 4° C. overnight. Plates were washed three times in PBST (PBS+0.05% tween), then blocked with 3% BSA in PBST for 1 hour at room temperature with shaking. Plates were washed 3× in PBST, and 150 nM Aβ1-42 (purchased from Bachem and reconstituted in 1 mM NaOH) was added in 0.1% BSA in PBST and incubated 70 minutes at 37° C. Plates were then washed 4 times with PBST and monoclonal mouse anti-amyloid precursor protein/amyloid beta antibody, purchased from Cell Signaling Technology was added at a 1:500 dilution in 1% BSA in PBST and incubated for 1 hour at room temperature with shaking. Plates were washed 4× in PBST and donkey anti mouse HRP-conjugated secondary antibody from Jackson ImmunoResearch Laboratories was added at 1:10,000 in PBST and incubated 1 hour at room temperature with shaking, then washed 4 times in PBST. […] Sulfuric acid (5N) was added to each well to stop the reaction, and the absorbance at 492 nm was read on a Biotek Synergy II plate reader.
Background: ELISA stands for enzyme-linked immunosorbent assay.

The target in data set [2] is T1, Aβ1-42. As to the kind of experiment: Amyloid Beta (1-42) Thioflavin T fibrillation (aggregation) assay. Format: biochemical. The arrangement: used to monitor the formation of Aβ1-42 peptide fibrils; purchased Anaspec. As to conditions: for inhibition of Aβ1-42 fibrillation (in words): increasing concentrations of peptide, Rfu; for molar ratio inhibitor/Aβ1-42 corresponding to IC50 of fibrillation: ratio at IC50. The method, then:
The Amyloid Beta (1-42) Thioflavin T Aggregation Kit was purchased from Anaspec and used to monitor the formation of Aβ1-42 peptide fibrils, according to the manufacturer's instructions, with some modifications. Thioflavin T dye was diluted to 250 μM in fibrillation buffer A and kept in the dark until use. […] Neutrophil proteins were tested in the absence and presence of protease inhibitors. […] Chymostatin was dissolved in DMSO and used at 125 μM final concentration in reactions with CG. Reactions were pipetted up and down twice in the wells with a multichannel pipette to ensure mixing, and fluorescence (ΔEX=440 nm, ΔEm=485 nm) was read every 5 minutes for 3 hours on a BioTek Synergy 2 plate reader with Gen 5 software, with a sensitivity set at 65.

In data set [3] the test system is mouse neuroblastoma cell line Neuro-2a. The data set can be described thus: Neurotoxicity assay of Aβ1-42 fibrils/oligomers (trypan blue cell death). As to conditions: for effect on Aβ1-42 oligomer toxicity: oligomers formed 15 min in presence of increasing concentrations; for effect on Aβ1-42 oligomer toxicity / effect on toxicity of Aβ1-42 fibrils: 18 μM Aβ1-42 on cells, 24 hours; for effect on toxicity of Aβ1-42 fibrils: protein at IC50 of fibrillation pre-incubated with Aβ1-42 24 hours in fibrillation conditions; for concentration at which significant inhibition of oligomer toxicity starts: tested at 0.5, 1, 2 and 4-fold the fibrillation IC50. Type of data set: cell-based. The method, then: A mouse neuroblastoma cell line Neuro-2a from ATCC was used for these experiments. Cells were grown and seeded in 96 well plates at 20,000 cells per well in complete medium (MEM α, nucleosides, no phenol red from Gibco, with 10% heat inactivated fetal bovine serum from Gibco, and penicillin/streptomycin from Lonza). At 24 hours after seeding, cells were washed with warmed MEM α, and then incubated in 90 μl MEM α+N2 Supplements+20 μl test sample (Aβ1-42 prepared as described below). Cells were incubated another 24 hours at 37° C., and then dislodged by pipetting up and down vigorously. 10 μl of cells were added to 10 μl trypan blue dye (0.4% solution) from BioRad, mixed and counted in a BioRad TC20 cell counter. The percent of living and dead cells was recorded for each well. In the case of the water and Triton X100 controls, 20 μl MEM α+N2 Supplements was added instead of the test sample and, just before counting the cells, 20 μl of medium was removed and replaced with 20 μl water or Triton X100 at a final concentration of 0.1%.
Monomeric Aβ1-42 (hexafluoroisopropanol treated Aβ1-42) from Bachem was reconstituted at 5 mM in anhydrous DMSO. Untreated Aβ1-42 from CS Bio was also used in these experiments. It was first treated with 1 mM in hexafluoroisopropanol from Sigma Aldrich, incubated 30 min at room temperature, and left open to dry in the fume hood overnight. It was then vacuum desiccated for 1 hour at room temperature. Dry films of Aβ1-42 were stored at −20° C. until use to keep it under a monomeric form. Aβ1-42 from CS Bio was also reconstituted in anhydrous DMSO at 5 mM before use.
To prepare the fibril and oligomer test samples, monomeric Aβ1-42 was placed under conditions favoring either formation of fibrils or oligomers. To form fibrils, 100 μM Aβ1-42 was added to Anaspec fibrillation buffer A±neutrophil protein, and incubated at 37° C. 24 hours before addition to the cells at a final concentration of 18 μM. Neutrophil proteins were used at Aβ/Protein ratios that led to 50% inhibition of fibrillation (IC50), previously determined for each protein in the fibrillation assay. To form oligomers, MEM α+N2 Supplements was used instead of the fibrillation buffer A±increasing concentrations of neutrophil protein or CAP37-derived peptide. Each mixture was then added to a tube containing freshly prepared Aβ1-42 in DMSO at a final concentration of 100 μM, and incubated 15 min at room temperature. These test samples were then tested on the cells at a final concentration of 18 μM.
Oligomers were formed by incubating 100 μM Aβ1-42 in MEMα+N2 Supplements at 4° C. for 3 days. […] Finally, these oligomers were added to neurons at a final concentration of 18 μM, and percent cell death was measured at 24 h.

Residues, ends and D or L forms follow the SMILES beside them. No end group written: not given here.

The text below walks through data of patent US12241099B2, “Peptide therapeutics for treating Alzheimer's disease and related conditions” (The Board of Regents of the University of Oklahoma, priority 2018, dated 2025).

T1 sequence (P05067 672-713 limits assumed): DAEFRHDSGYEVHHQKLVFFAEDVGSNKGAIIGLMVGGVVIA

For the molecule “95-122 5RMP: 95-122 with two AEEA mini-PEG molecules and 4 arginines at the N-terminal end and one arginine at the C-terminal end (RRRRLDREANLTSSVTILPLPLQNATVEAGTRR; also: two AEEA mini-PEG molecules, place not given here)”, in data set [1], the “binding of Aβ1-42” value is given as “does not interact”. In addition, the “inhibition of Aβ1-42 fibrillation (in words)” value (shortened to “inhibition … (in words)”) in data set [2] is listed as “did not inhibit fibrillation”.

Consider “95-122: wild-type CAP37-derived peptide 95-122 (LDREANLTSSVTILPLPLQNATVEAGTR)”, for which the “binding of Aβ1-42” value in data set [1] is given as “did not bind”.

Take `CSCC[C@H](NC(=O)[C@H](CO)NC(=O)[C@@H](NC(=O)[C@H](CCCNC(=N)N)NC(=O)CNC(=O)[C@H](Cc1c[nH]c2ccccc12)NC(=O)CNC(=O)[C@H](C)NC(=O)[C@@H](NC(=O)[C@@H](NC(=O)[C@H](CS)NC(=O)[C@H](CC(C)C)NC(=O)[C@@H](NC(=O)CN)[C@@H](C)O)[C@@H](C)O)C(C)C)C(C)C)C(=O)N[C@@H](CCCNC(=N)N)C(=O)N[C@@H](CCCNC(=N)N)C(=O)NCC(=O)N[C@H](C(=O)N[C@@H](CCCNC(=N)N)C(=O)N[C@H](C(=O)N[C@@H](CC(C)C)C(=O)N[C@@H](CCCNC(=N)N)C(=O)N[C@@H](CCC(=O)O)C(=O)N[C@H](C(=O)N[C@@H](CCC(N)=O)C(=O)N[C@@H](CC(C)C)C(=O)O)C(C)C)[C@@H](C)O)[C@@H](C)O` [CG119-144 D137R] (H-GTLCTVAGWGRVSMRRGTRTLREVQL-OH; N-terminus and C-terminus assumed): the “binding of Aβ1-42” value in data set [1] is reported as “increased the binding”. Besides, in data set [3], the “effect on Aβ1-42 oligomer toxicity” value is “significantly decrease”. The “effect on neurotoxicity of preformed Aβ1-42 oligomers” value in data set [3] (oligomers formed first (3 days, 4° C.), then incubated with peptide at 2×IC50 for 3 days, 18 μM on neurons, cell death at 24 h) is “significantly reversed”. In data set [2], the “inhibition … (in words)” value is recorded as “inhibitory effects” and the “molar ratio inhibitor/Aβ1-42 corresponding to IC50 of fibrillation” value is on record as 1/3.

For the molecule “CG119-144 ΔR129V130: mutant CG-derived peptide, CG119-144 with positively charged R129 (and V130) deleted (GTLCTVAGWGSMRRGTDTLREVQL)”, the “binding of Aβ1-42” value in data set [1] is “abolished the binding”. Besides, the “inhibition … (in words)” value in data set [2] is “no inhibitory effect”.

Consider “CG: cathepsin G, full-length, purified from human neutrophils”, for which, in data set [1], the “binding of Aβ1-42” value is “stronger” and the “binding of Aβ1-42 on addition of antiproteases” value (shortened to “binding … of antiproteases”) is “not significantly changed”. For the same molecule, in data set [3], the “effect on Aβ1-42 oligomer toxicity” value is “significantly inhibited”, the “effect on toxicity of Aβ1-42 fibrils” value is on record as “significant inhibition” and the “concentration at which significant inhibition of oligomer toxicity starts” value was 0.5 ×IC50.

As to “GTLCTVAGWGRVSMRRGTDTLREVQL (Completely synthesized in the lab. Amino acids 119-144 of Cathepsin G protein.) [CG119-144]”, the “binding of Aβ1-42” value in data set [1] is recorded as “Highest levels”. Further, the “inhibition … (in words)” value in data set [2] is “no inhibitory effect”.

For the molecule “GTLCTVAGWGRVSMRRGTDTLRPRVQL (Completely synthesized in the lab. Peptide CG119-144.) [CG119-144 E141PR]”, the “binding of Aβ1-42” value in data set [1] was “increased the binding”. In addition, the “inhibition … (in words)” value in data set [2] is “inhibitory effects”.

On to “GTRCQVAGWGSQRSGGRLSRFPRFVNV (Completely synthesized in the lab. Amino acids 120-146 of CAP37 protein.) [120-146 QR, wild-type CAP37-derived peptide, amino acids 120-146 of CAP37 protein]”, for which the “binding of Aβ1-42” value in data set [1] is listed as “binds”.

For the molecule “NE: neutrophil elastase, full-length, purified from human neutrophils”, in data set [1], the “binding of Aβ1-42” value is reported as “almost undetectable” and the “binding … of antiproteases” value is recorded as “significantly increased”. Also, in data set [3], the “effect on Aβ1-42 oligomer toxicity” value was “significantly inhibited”, the “effect on toxicity of Aβ1-42 fibrils” value is on record as “significant inhibition” and the “concentration at which significant inhibition of oligomer toxicity starts” value is listed as 2 ×IC50.

Take “NQGRHFCGGALIHARFVMTAASCFQ (Completely synthesized in the lab. Amino acids 20-44 of CAP37 protein.) [20-44 CC, wild-type CAP37-derived peptide, amino acids 20-44 of CAP37 protein]”: the “binding of Aβ1-42” value in data set [1] is “binds”.

Consider “NQGRHFSGGALIHARFVMTAASCFQ (Completely synthesized in the lab. Peptide CAP3720-44C26S.) [20-44 SC, mutant CAP37-derived peptide 20-44]”, for which, in data set [1], the “binding of Aβ1-42” value is “binds”.

B1: CAP37: cationic antimicrobial protein of molecular weight 37 KDa, full-length, purified from human neutrophils (protein)
chain: IVGGRKARPRQFPFLASIQNQGRHFCGGALIHARFVMTAASCFQSQNPGVSTVVLGAYDLRRRERQSRQTFSISSMSENGYDPQQNLNDLMLLQLDREANLTSSVTILPLPLQNATVEAGTRCQVAGWGSQRSGGRLSRFPRFVNVTVTPEDQCRPNNVCTGVLTRRGGICNGDGGTPLVCEGLAHGVASFSLGPCGRGPDFFTRVALFRDWIDGVLNNPGP
Take B1: in data set [1], the “binding of Aβ1-42” value was “stronger” and the “binding … of antiproteases” value is reported as “not significantly changed”. Moreover, in data set [3], the “effect on Aβ1-42 oligomer toxicity” value is recorded as “does not inhibit” and the “effect on toxicity of Aβ1-42 fibrils” value is on record as “no effect”. Also, the “molar ratio inhibitor/Aβ1-42 corresponding to IC50 of fibrillation” value in data set [2] is listed as 1/11.
